Assay [1] has as its target T1, human IL-36γ, truncated (human, UniProt Q9NZH8 18-169).
T1 sequence: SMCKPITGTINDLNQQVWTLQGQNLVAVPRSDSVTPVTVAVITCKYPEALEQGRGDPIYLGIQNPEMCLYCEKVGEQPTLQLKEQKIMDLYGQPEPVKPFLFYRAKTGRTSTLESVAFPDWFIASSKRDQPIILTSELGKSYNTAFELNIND
The assay is described as follows: cell-based or functional assay.

Assay [2] addresses T2, human IL-36α (R&D Systems cat#6995-IL-010/CF) (human, UniProt Q9UHA7 6-158).
T2 sequence (looked up): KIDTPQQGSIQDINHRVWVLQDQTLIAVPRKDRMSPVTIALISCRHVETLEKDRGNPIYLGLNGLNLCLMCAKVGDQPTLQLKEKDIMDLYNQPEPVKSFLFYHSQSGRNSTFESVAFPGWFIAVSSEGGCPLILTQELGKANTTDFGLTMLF
The assay is described as follows: cell-based or functional assay.

The target of assay [3] is T3, human IL-36α(R12), truncated (human, UniProt Q9UHA7 6-158).
T3 construct: Untagged after removal of the His-SUMO tag; also called hIL-36alpha
T3 chain: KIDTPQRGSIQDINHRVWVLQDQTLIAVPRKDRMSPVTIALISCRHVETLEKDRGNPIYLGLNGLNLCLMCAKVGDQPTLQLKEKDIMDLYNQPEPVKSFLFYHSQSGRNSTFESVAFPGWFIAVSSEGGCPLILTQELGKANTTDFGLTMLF
The assay is described as follows: SPR, Biacore, 1:1 Langmuir fit. As for the experimental part: (§1) The humanized antibodies obtained in Example 6 were tested for their binding to recombinant human or cynomolgus macaque IL36a and IL-36γ in Biacore assays. The association time was set to 60 seconds, and the final dissociation time was set to 600 seconds. Equilibrium dissociation constant KD (kd/ka) of exemplary antibodies was determined using a 1:1 Langmuir fit model (see Tables 17-18 below).
(In general: In SPR one partner is held on a chip, and binding of the other changes the refractive index at the surface.)

The target in assay [4] is T1, human IL-36γ, truncated. The assay is described as follows: SPR, Biacore, 1:1 Langmuir fit. As for the experimental part:
as §1

The target of assay [5] is T4, cynomolgus IL-36α, truncated (cynomolgus macaque (Macaca fascicularis), UniProt Q9UHA7 14-158 (human entry), limits assumed).
T4 construct: Untagged after removal of the His-SUMO tag; also called cynomolgus IL-36 alpha; cyIL-36alpha
T4 chain: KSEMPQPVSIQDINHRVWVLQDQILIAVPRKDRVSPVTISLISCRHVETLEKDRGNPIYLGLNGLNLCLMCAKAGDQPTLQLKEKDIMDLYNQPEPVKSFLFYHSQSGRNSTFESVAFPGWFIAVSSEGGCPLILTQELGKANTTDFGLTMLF
The assay is described as follows: SPR, Biacore, 1:1 Langmuir fit. The protocol:
as §1

Assay [6] concerns the target T5, cynomolgus IL-36γ, truncated (cynomolgus macaque (Macaca fascicularis), UniProt Q9NZH8 18-167 (human entry), limits assumed).
T5 construct: Untagged after removal of the His-SUMO tag; also called cynomolgus IL-36 gamma; cyIL-36gamma
T5 chain: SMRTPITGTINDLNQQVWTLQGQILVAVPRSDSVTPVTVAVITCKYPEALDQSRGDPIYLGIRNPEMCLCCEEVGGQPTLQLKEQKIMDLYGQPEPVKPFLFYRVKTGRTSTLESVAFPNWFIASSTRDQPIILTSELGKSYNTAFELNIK
The assay is described as follows: SPR, Biacore, 1:1 Langmuir fit. As for the experimental part: as §1

Assay [7] concerns the target T3, human IL-36α(R12), truncated. The assay is described as follows: SPR, Biacore, 1:1 Langmuir fit; heads of c3 and c4 printed swapped. The protocol:
as §1

Assay [8] addresses T1, human IL-36γ, truncated. Described as above. As for the experimental part:
as §1

Assay [9] deals with T4, cynomolgus IL-36α, truncated. The description is as above. The protocol:
as §1

The target of assay [10] is T5, cynomolgus IL-36γ, truncated. The description is as above. The protocol:
as §1

In assay [11] the target is T3, human IL-36α(R12), truncated. The assay is described as follows: cell-based or functional assay.
The target of assay [12] is T4, cynomolgus IL-36α, truncated. The assay is described as follows: cell-based or functional assay.
In assay [13] the target is T1, human IL-36γ, truncated. The assay is described as follows: cell-based or functional assay. The source holds these as a separate data set.
In assay [14] the target is T5, cynomolgus IL-36γ, truncated. The assay is described as follows: cell-based or functional assay.
The target in assay [15] is T3, human IL-36α(R12), truncated. The assay is described as follows: cell-based or functional assay.
The target of assay [16] is T1, human IL-36γ, truncated. The assay is described as follows: cell-based or functional assay. The source holds these as a separate data set.
Assay [17] has as its target T3, human IL-36α(R12), truncated. The assay is described as follows: cell-based or functional assay.
Assay [18] has as its target T1, human IL-36γ, truncated. The assay is described as follows: cell-based or functional assay. The source holds these as a separate data set.
The target in assay [19] is T3, human IL-36α(R12), truncated. The assay is described as follows: SPR, Biacore T200, antibody on chip, IL-36 as analyte, 1:1 Langmuir fit. As for the experimental part:
(§2) Antibodies were further tested for their binding to recombinant human or cynomolgus IL36α, IL-36γ in Biacore assays. In order to kinetically analyze the binding activity of the IL-36α and IL-36γ dual antagonist antibodies, the binding activity to human and cynomolgus IL-36α and IL-36γ was measured by surface plasmon resonance method (SPR). All of the following manipulations were carried out using a Biacore T200 (GE Healthcare Life Sciences, Pittsburgh, Pa.).
(§3) To determine antibody affinity to human and cynomolgus IL36, recombinant antibodies were immobilized on a CM5 sensor chip (cat# BR100012, GE Healthcare Life Sciences, Pittsburgh, Pa.) by an amine coupling chemistry. In particular, the kinetic assay was carried out by immobilizing on the chip approximately 2000 RU of recombinant antibody. Thereafter, recombinant human or cynomolgus IL36 proteins, serially diluted from a high concentration, were allowed to run at a flow rate of 30 μL/min onto the chip for 420 seconds. The dissociation time was 3600 seconds and the binding curves were measured at 25° C. Regeneration was performed with 10 mM glycine pH 1.5 for 30s. Alternatively, the analytes were injected with increasing concentrations in a single cycle, the surface not being regenerated between injections, using a method referred to as “single cycle kinetics.” In particular, either anti-human or anti-mouse Fc specific antibodies were immobilized on a CM5 sensor chip (cat# BR100012, GE Healthcare Life Sciences, Pittsburgh, Pa.) by an amine coupling chemistry. Thereafter, IL-36α and IL-36γ dual antagonist mouse/human chimeric or mouse antibodies were captured at approximately 200 RUs, followed by injections of increasing concentrations of recombinant human and cynomolgus IL36 proteins. The association time was 300 seconds, and the final dissociation time was 1200 seconds. At the end of the analyte injections, the surface was regenerated with either 3M MgCl₂ (anti-human Fc capture antibody) for 30 s or 10 mM glycine-HCl pH 1.7 for 180 s (anti-mouse IgG capture antibody).
(§4) The raw data were double referenced by subtraction of the signals from a reference flow cell without immobilized ligand and a buffer blank. The sensorgram corresponding to each concentration was obtained.

In assay [20] the target is T1, human IL-36γ, truncated. The assay is described as above. As for the experimental part:
as §2, §3, §4

Assay [21] deals with T4, cynomolgus IL-36α, truncated. Described as above. The protocol:
as §2, §3, §4

Assay [22] has as its target T5, cynomolgus IL-36γ, truncated. Described as above. The protocol:
as §2, §3, §4

The text below walks through data of patent US20210380675A1 (Kyowa Kirin, published 2021).

Usually Kd stands for the free concentration of one partner at which half of the binding sites on the other are occupied at equilibrium, for simple one-to-one binding. Lower therefore signals higher affinity. In general, koff refers to the rate constant with which the complex falls apart. A low value points to slow dissociation. One may read the kon as the rate constant with which the complex forms. Lower therefore signals slow association.

B1: 144L249B LV9 HV11 (antibody, V domains shown)
VH: QVQLVQSGAEVKKPGASVKVSCKASGFNIKDTYIYWVRQAPGQGLEWIGRIDPAIGTTRYDPKFQGKATLTTDTSTNTAYLELSSLRSEDTAVYYCARYDYSGSSFYFDYWGQGTLVTVSS
VL: QAVVTQEPSLTVSPGGTVTLTCRSSTGAVTTSNYANWVQEKPGQLFTGLIGGTNDRAPGVPARFSGSLLGGKAALTLSGAQPEDEADYFCALWYSNHLVFGGGTKLTVL
notes: Humanized
For B1, the “IC50 of IL-8 secretion (AlphaLISA), HaCaT, 10 nM human IL-36γ” value in the assay with human IL-36γ, truncated [1] was determined as 16.5 nM. The “IC50 of IL-8 secretion (AlphaLISA), HaCaT, 10 nM human IL-36α” value in assay [2] was 7.68 nM. Further, the Kd in assay [3] amounted to 1.29 nM; in the assay with human IL-36γ, truncated [4], 0.795 nM; in assay [5], 0.927 nM; in assay [6] it was 0.913 nM. Besides, the koff in [7] amounted to 0.00102 s⁻¹; in the assay with human IL-36γ, truncated [8], 0.000706 s⁻¹; in assay [9] it was 0.00135 s⁻¹; in assay [10], 0.000866 s⁻¹. Besides, the kon amounted to 791000 M⁻¹ s⁻¹ in assay [7]; 888000 M⁻¹ s⁻¹ with human IL-36γ, truncated [8]; 1.46e+06 M⁻¹ s⁻¹ in assay [9]; 948000 M⁻¹ s⁻¹ in assay [10].

B2: 144L249B LV7a HV11 (antibody, V domains shown)
VH: QVQLVQSGAEVKKPGASVKVSCKASGFNIKDTYIYWVRQAPGQGLEWIGRIDPAIGTTRYDPKFQGKATLTTDTSTNTAYLELSSLRSEDTAVYYCARYDYSGSSFYFDYWGQGTLVTVSS
VL: QAVVTQEPSLTVSPGGTVTLTCRSSTGAVTTSNYANWVQQKPGQAFTGLIGGTNDRAPGVPARFSGSLLGGKAALTISGAQPEDEADYFCALWYSNHLVFGGGTKLTVL
notes: Humanized
Regarding B2, the “IC50 of IL-8 secretion (AlphaLISA), HaCaT, 10 nM human IL-36γ” value with human IL-36γ, truncated [1] stood at 25.8 nM. Further, the “IC50 of IL-8 secretion (AlphaLISA), HaCaT, 10 nM human IL-36α” value in assay [2] was 9.2 nM. Also, the Kd in assay [3] came out at 1.37 nM; with human IL-36γ, truncated [4], 0.789 nM; in assay [5], 1 nM; in assay [6], 0.91 nM. The koff in [7] turned out to be 0.00103 s⁻¹; with human IL-36γ, truncated [8] it was 0.000678 s⁻¹; in assay [9], 0.0014 s⁻¹; in assay [10] it was 0.000831 s⁻¹. For the same molecule, the kon worked out at 749000 M⁻¹ s⁻¹ in assay [7]; 859000 M⁻¹ s⁻¹ with human IL-36γ, truncated [8]; 1.4e+06 M⁻¹ s⁻¹ in [9]; 913000 M⁻¹ s⁻¹ in assay [10].

B3: 144L249B (antibody, V domains shown)
VH: EVQLQQSGAELVKPGASVKLSCTASGFNIKDTYIYWVKQRPEQGLEWIGRIDPAIGTTRYDPKFQGKATLTADTSSNTAFLQLSSLTSEDTAVYYCARYDYSGSSFYFDYWGRGTTLTVSS
VL: QAVVTQESALTTSPGETVTLTCRSSTGAVTTSNYANWVQEKPDHLFTGLIGGTNNRAPGVPARFSGSLIGDKAALTITGAQTEDEAIYFCALWYSNHLVFGGGTKLTVL
notes: Mouse monoclonal from hybridoma; mouse IgG heavy and lambda light chain; also called mouse antibody 144L249B
As for B3, the “IC50 of IL-8 secretion, HaCaT, 10 nM human IL-36α, FIG. 1C” value in assay [11] was determined as 14.5 nM. Moreover, the “IC50 of IL-8 secretion, HaCaT, 10 nM cynomolgus IL-36α, FIG. 2B” value in [12] was 7.94 nM. In addition, the “IC50 of IL-8 secretion, HaCaT, 10 nM human IL-36γ, FIG. 1F” value with human IL-36γ, truncated [13] is 9.81 nM. Further, the “IC50 of IL-8 secretion, HaCaT, 10 nM cynomolgus IL-36γ, FIG. 2D” value in [14] stood at 11.8 nM. In addition, in assay [15], the “IC50 of IL-8 secretion, primary human keratinocytes, 6.25 nM human IL-36α, FIG. 4A” value was 13.8 nM. For the same molecule, the “IC50 of IL-8 secretion, primary human keratinocytes, 8.4 nM human IL-36γ, FIG. 4C” value in the assay with human IL-36γ, truncated [16] is 9.28 nM. Further, in assay [17], the “IC50 of IL-8 secretion, primary human monocytes, 20 nM human IL-36α, FIG. 5A” value worked out at 27.1 nM. Besides, the “IC50 of IL-8 secretion, primary human monocytes, 6 nM human IL-36γ, FIG. 5C” value with human IL-36γ, truncated [18] amounted to 12 nM. Besides, the “IC50 of IL-8 secretion, primary human monocytes, 50 nM human IL-36γ, FIG. 5D” value with human IL-36γ, truncated [18] was 38.7 nM. The Kd amounted to 1.53 nM in assay [3]; 0.399 nM in the assay with human IL-36γ, truncated [4]; 1.16 nM in [5]; 0.288 nM in assay [6]; 1.67 nM in assay [19]; 0.377 nM in the assay with human IL-36γ, truncated [20]. The values for the Kd in assay [21] and in [22] were 1.28 nM and 0.312 nM, respectively. Besides, the koff in assay [7] was found to be 0.000785 s⁻¹; with human IL-36γ, truncated [8], 0.000395 s⁻¹; in assay [9] it was 0.00105 s⁻¹; in [10], 0.000326 s⁻¹; in assay [19] it was 0.000899 s⁻¹; in the assay with human IL-36γ, truncated [20], 0.000194 s⁻¹. Besides, the results for the koff in assay [21] and in assay [22] were 0.000839 s⁻¹ and 0.000197 s⁻¹, respectively. Also, the kon in assay [7] worked out at 515000 M⁻¹ s⁻¹; in the assay with human IL-36γ, truncated [8], 990000 M⁻¹ s⁻¹; in assay [9], 905000 M⁻¹ s⁻¹; in [10], 1.13e+06 M⁻¹ s⁻¹; in [19], 539000 M⁻¹ s⁻¹; with human IL-36γ, truncated [20], 516000 M⁻¹ s⁻¹. Also, the kon in assay [21] turned out to be 658000 M⁻¹ s⁻¹; in assay [22], 631000 M⁻¹ s⁻¹.
